The text below walks through data of article PMC4631838, “Molecular architecture of the yeast Mediator complex” (eLife, 2015).

Holding throughout (assay): cross-linking; BS3 (unlabeled, or 50:50 with 2H12-labeled BS3) on the purified native holoenzyme; 150 mM NaPO4, 150 mM KOAc, pH 7.5, 5% glycerol, 2 mM DTT; procedure A 2.7 mM reagent 120 min on ice; trypsin digest, LC-MS/MS, Protein Prospector
Conditions in all cases: both partners purified

Assay [1] concerns the target T1, Med14 (Rgr1), Mediator subunit (S. cerevisiae, UniProt P19263 1-1082).
T1 construct: Med14 (Rgr1), S. cerevisiae, endogenous, residues 1-1082 spoken of; source: endogenous, S. cerevisiae CB010 double-tagged strain; within the purified native holoenzyme
T1 sequence (looked up): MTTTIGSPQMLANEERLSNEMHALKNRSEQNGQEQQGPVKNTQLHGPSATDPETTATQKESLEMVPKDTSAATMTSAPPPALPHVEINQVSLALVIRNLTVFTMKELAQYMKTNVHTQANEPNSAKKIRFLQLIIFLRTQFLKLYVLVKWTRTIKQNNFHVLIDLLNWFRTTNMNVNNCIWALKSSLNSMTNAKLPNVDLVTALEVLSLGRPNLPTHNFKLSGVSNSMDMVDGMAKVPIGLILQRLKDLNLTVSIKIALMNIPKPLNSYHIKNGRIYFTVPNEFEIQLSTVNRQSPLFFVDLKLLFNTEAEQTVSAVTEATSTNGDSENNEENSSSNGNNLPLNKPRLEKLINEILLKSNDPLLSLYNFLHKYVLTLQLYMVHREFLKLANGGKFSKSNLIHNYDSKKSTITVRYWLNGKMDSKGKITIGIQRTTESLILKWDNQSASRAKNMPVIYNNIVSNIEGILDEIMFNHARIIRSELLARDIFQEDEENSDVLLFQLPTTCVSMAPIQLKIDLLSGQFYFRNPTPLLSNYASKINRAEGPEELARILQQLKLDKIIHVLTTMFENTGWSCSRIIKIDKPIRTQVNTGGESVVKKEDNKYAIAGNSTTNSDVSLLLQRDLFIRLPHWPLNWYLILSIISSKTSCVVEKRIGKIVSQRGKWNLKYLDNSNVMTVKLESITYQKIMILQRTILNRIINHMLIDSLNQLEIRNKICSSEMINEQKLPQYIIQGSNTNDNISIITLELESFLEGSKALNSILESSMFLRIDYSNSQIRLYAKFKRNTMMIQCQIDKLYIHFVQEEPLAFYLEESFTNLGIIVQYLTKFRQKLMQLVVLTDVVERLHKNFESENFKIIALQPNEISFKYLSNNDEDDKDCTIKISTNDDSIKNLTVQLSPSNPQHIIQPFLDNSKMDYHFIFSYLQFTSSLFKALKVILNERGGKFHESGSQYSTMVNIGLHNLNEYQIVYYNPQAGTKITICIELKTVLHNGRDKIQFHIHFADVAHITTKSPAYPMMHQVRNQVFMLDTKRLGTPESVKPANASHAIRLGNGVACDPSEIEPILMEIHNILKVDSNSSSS

The target in assay [2] is T2, Med1, Mediator Middle module subunit (S. cerevisiae, UniProt Q12321 1-566).
T2 construct: Med1, S. cerevisiae, endogenous; source: endogenous, S. cerevisiae CB010 double-tagged strain; within the purified native holoenzyme
T2 sequence (looked up): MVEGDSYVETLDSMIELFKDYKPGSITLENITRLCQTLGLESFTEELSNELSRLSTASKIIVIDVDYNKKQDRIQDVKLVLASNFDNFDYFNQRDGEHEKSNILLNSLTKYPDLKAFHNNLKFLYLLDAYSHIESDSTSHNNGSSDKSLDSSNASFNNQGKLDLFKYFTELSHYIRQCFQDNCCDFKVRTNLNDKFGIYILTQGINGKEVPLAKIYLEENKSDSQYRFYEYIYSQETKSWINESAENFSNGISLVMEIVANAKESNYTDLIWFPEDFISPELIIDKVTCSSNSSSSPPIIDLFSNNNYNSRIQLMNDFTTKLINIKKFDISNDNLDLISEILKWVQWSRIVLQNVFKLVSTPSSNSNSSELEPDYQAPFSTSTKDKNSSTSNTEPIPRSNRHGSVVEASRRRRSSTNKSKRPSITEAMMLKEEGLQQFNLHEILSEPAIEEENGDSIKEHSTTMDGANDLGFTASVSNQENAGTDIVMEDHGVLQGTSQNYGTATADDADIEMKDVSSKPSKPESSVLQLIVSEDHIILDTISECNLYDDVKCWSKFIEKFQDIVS

In assay [3] the target is T3, Med5 (Nut1), Mediator Tail module subunit (S. cerevisiae, UniProt P53114 1-1132).
T3 construct: Med5 (Nut1), S. cerevisiae, endogenous; source: endogenous, S. cerevisiae CB010 double-tagged strain; within the purified native holoenzyme
T3 sequence (looked up): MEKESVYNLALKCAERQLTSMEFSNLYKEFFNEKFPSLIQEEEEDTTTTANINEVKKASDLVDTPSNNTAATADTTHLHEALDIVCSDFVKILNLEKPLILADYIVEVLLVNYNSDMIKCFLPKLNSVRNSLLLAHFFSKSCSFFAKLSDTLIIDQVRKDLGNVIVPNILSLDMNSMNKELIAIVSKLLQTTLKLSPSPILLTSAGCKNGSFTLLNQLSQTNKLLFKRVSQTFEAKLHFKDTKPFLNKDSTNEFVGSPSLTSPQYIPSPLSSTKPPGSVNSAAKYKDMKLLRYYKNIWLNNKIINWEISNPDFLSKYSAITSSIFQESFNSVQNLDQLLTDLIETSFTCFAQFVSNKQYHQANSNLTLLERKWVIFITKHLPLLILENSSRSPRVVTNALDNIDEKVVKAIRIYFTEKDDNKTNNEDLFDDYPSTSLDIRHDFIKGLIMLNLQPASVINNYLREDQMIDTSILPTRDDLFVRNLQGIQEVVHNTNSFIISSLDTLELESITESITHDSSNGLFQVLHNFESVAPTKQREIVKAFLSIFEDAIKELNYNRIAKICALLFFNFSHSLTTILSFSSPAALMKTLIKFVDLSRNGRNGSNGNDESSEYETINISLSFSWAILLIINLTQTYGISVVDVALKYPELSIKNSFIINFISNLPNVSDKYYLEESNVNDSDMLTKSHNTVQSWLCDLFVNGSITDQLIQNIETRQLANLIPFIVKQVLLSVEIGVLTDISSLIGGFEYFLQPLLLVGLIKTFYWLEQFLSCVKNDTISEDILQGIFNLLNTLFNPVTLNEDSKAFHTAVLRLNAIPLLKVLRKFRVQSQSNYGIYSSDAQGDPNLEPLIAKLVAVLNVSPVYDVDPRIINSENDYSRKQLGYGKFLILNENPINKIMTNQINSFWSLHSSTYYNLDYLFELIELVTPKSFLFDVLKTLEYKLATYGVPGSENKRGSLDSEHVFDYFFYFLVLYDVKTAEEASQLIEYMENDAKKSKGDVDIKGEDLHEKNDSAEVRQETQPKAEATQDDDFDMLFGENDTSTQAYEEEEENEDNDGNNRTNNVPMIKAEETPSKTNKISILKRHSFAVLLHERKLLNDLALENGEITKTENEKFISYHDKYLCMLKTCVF

B1: Med10 (Nut2), Mediator Middle module subunit (natural protein, S. cerevisiae, UniProt Q06213 1-157, looked up)
chain: MNGNSTNNEQLQQELATTQDQVASIIESFVELGVSIYDFPGTPEATKGMITNLQRNVDRLYKLNVRSNDPQSSLSKVDIPLEVVQYIEDGRNPDIYTREFVEAIRRSNQYQRGKMHGLKQLRDSLADKIVDEFPELKEPVEDIIKRTSPIDNVSNTH
notes: Med10 (Nut2), S. cerevisiae, endogenous; source: endogenous, S. cerevisiae CB010 double-tagged strain; within the purified native holoenzyme
B1: the binding result in assay [1] is listed as “binds”.

B2: Med4, Mediator Middle module subunit (natural protein, S. cerevisiae, UniProt Q12343 1-284, looked up)
chain: MSVQDTKAVEFSMGHIRSSSVSLVAEATSNTNSEDKLSKVQLYEDLCRYEDTLSKLVESVDRFKPNLDIAKDLIRTDEALFENVKLLAEYDNIYRNLQKIDKDSEELDSKTRKILEILNECHDELKALPMLEQVEFEKNTILQQRSKINSTELLDYATKLSKFTKIPPTFDKGAVGPNNFIWPAEDALRRGMLAMASLHSKELTRIPGEEVEETEVPTVPPSQSEEQKGQMAKKEGTPKTDSFIFDGTAKEVGDEADNTKDKEKEENNDDALDLDLDLFDPDDF
notes: Med4, S. cerevisiae, endogenous; source: endogenous, S. cerevisiae CB010 double-tagged strain; within the purified native holoenzyme
Turning to B2, the binding result in assay [2] and in assay [1] was “binds” in each case.

B3: Med2, Mediator Tail module subunit (natural protein, S. cerevisiae, UniProt Q12124 1-431, looked up)
chain: MVVQNSPVSSVHTANFSERGSNTRTMTYKNKLTVCFDDILKVGAEMMMQQQLKNVQLDSYLVNGFSQSQQKLLKEKVKLFHGILDDLETSLSQSSSYLETLTALGKEKEKEREEAEKKRAEQENMRKVREQEELKKRQELEEASQQQQLQQNSKEKNGLGLNFSTTAPANTTDANGSKENYQELGSLQSSSQTQLENANAANNGAAFSPLTTTRIQSQQAQPSDVMFNDLNSMDISMFSGLDSTGFDSTAFNATVDETKGFDDNDSGNNYNDINISSIENNINNNINSTKNGKDNNNESNKNNNGDEKNKNNNEDNENNNNSSEKNNNNNNNNNNNNDDNGNNNNNNSGNDNNNTTNNDSNNKNNSITTGNDNENIVNNDLPTTVVSNPGDNPPPADNGEEYLTLNDFNDLNIDWSTTGDNGELDLSGFNI
notes: Med2, S. cerevisiae, endogenous; source: endogenous, S. cerevisiae CB010 double-tagged strain; within the purified native holoenzyme
Take B3: the binding result in assay [1] is recorded as “binds”.

B4: Med17 (Srb4), Mediator Head module subunit (natural protein, S. cerevisiae, UniProt P32569 1-687, looked up)
chain: MTTEDPDSNHLSSETGIKLALDPNLITLALSSNPNSSLHSPTSDEPVPESAGKADTSIRLEGDELENKTKKDNDKNLKFLKNKDSLVSNPHEIYGSMPLEQLIPIILRQRGPGFKFVDLNEKELQNEIKQLGSDSSDGHNSEKKDTDGADENVQIGEDFMEVDYEDKDNPVDSRNETDHKTNENGETDDNIETVMTQEQFVKRRRDMLEHINLAMNESSLALEFVSLLLSSVKESTGMSSMSPFLRKVVKPSSLNSDKIPYVAPTKKEYIELDILNKGWKLQSLNESKDLLRASFNKLSSILQNEHDYWNKIMQSISNKDVIFKIRDRTSGQKLLAIKYGYEDSGSTYKHDRGIANIRNNIESQNLDLIPHSSSVFKGTDFVHSVKKFLRVRIFTKIESEDDYILSGESVMDRDSESEEAETKDIRKQIQLLKKIIFEKELMYQIKKECALLISYGVSIENENKVIIELPNEKFEIELLSLDDDSIVNHEQDLPKINDKRANLMLVMLRLLLVVIFKKTLRSRISSPHGLINLNVDDDILIIRPILGKVRFANYKLLLKKIIKDYVLDIVPGSSITETEVEREQPQENKNIDDENITKLNKEIRAFDKLLNIPRRELKINLPLTEHKSPNLSLMLESPNYCNALIHIKFSAGTEANAVSFDTTFSDFKEVEDFLHFIVAEYIQQKKV
notes: Med17 (Srb4), S. cerevisiae, endogenous, residues 1-687 spoken of; cross-linking was done after cleavage; also called Med17p; source: endogenous, S. cerevisiae CB010 double-tagged strain; within the purified native holoenzyme; not shown: TAP, N-terminal, cleaved
For the molecule B4, the binding result in assay [1] is “binds”.

B5: Med15 (Gal11), Mediator Tail module subunit (natural protein, S. cerevisiae, UniProt P19659 1-1081, looked up)
chain: MSAAPVQDKDTLSNAERAKNVNGLLQVLMDINTLNGGSSDTADKIRIHAKNFEAALFAKSSSKKEYMDSMNEKVAVMRNTYNTRKNAVTAAAANNNIKPVEQHHINNLKNSGNSANNMNVNMNLNPQMFLNQQAQARQQVAQQLRNQQQQQQQQQQQQRRQLTPQQQQLVNQMKVAPIPKQLLQRIPNIPPNINTWQQVTALAQQKLLTPQDMEAAKEVYKIHQQLLFKARLQQQQAQAQAQANNNNNGLPQNGNINNNINIPQQQQMQPPNSSANNNPLQQQSSQNTVPNVLNQINQIFSPEEQRSLLQEAIETCKNFEKTQLGSTMTEPVKQSFIRKYINQKALRKIQALRDVKNNNNANNNGSNLQRAQNVPMNIIQQQQQQNTNNNDTIATSATPNAAAFSQQQNASSKLYQMQQQQQAQAQAQAQAQAQAQAQAQAQAAQAAQAQAQAQAQAQAQAQAQAQAQAQAQAQAQAQAQAHAQHQPSQQPQQAQQQPNPLHGLTPTAKDVEVIKQLSLDASKTNLRLTDVTNSLSNEEKEKIKMKLKQGQKLFVQVSNFAPQVYIITKNENFLKEVFQLRIFVKEILEKCAEGIFVVKLDTVDRLIIKYQKYWESMRIQILRRQAILRQQQQMANNNGNPGTTSTGNNNNIATQQNMQQSLQQMQHLQQLKMQQQQQQQQQQQQQQQQQQQQQQQHIYPSSTPGVANYSAMANAPGNNIPYMNHKNTSSMDFLNSMENTPKVPVSAAATPSLNKTINGKVNGRTKSNTIPVTSIPSTNKKLSISNAASQQPTPRSASNTAKSTPNTNPSPLKTQTKNGTPNPNNMKTVQSPMGAQPSYNSAIIENAFRKEELLLKDLEIRKLEISSRFKHRQEIFKDSPMDLFMSTLGDCLGIKDEEMLTSCTIPKAVVDHINGSGKRKPTKAAQRARDQDSIDISIKDNKLVMKSKFNKSNRSYSIALSNVAAIFKGIGGNFKDLSTLVHSSSPSTSSNMDVGNPRKRKASVLEISPQDSIASVLSPDSNIMSDSKKIKVDSPDDPFMTKSGATTSEKQEVTNEAPFLTSGTSSEQFNVWDWNNWTSAT
notes: Med15 (Gal11), S. cerevisiae, endogenous; source: endogenous, S. cerevisiae CB010 double-tagged strain; within the purified native holoenzyme
In the case of B5, the binding result in assay [1] and in assay [3] was “binds” throughout.
